Positions count from the first letter of the chain named.
T1: SUMO-L-Myc fusion protein (recombinant bHLHZip domain of L-Myc fused with a small ubiquitin-like modifier … (UniProt P12524 281-364))
T1 construct: not shown: small ubiquitin-like modifier (SUMO) protein
T1 sequence (looked up): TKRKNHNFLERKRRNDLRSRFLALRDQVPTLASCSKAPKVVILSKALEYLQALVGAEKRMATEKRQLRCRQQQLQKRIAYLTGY

T2: CD73 (UniProt P21589 27-549, limits assumed)
T2 construct: Target antigen in phage ELISA; construct not described
T2 sequence (looked up): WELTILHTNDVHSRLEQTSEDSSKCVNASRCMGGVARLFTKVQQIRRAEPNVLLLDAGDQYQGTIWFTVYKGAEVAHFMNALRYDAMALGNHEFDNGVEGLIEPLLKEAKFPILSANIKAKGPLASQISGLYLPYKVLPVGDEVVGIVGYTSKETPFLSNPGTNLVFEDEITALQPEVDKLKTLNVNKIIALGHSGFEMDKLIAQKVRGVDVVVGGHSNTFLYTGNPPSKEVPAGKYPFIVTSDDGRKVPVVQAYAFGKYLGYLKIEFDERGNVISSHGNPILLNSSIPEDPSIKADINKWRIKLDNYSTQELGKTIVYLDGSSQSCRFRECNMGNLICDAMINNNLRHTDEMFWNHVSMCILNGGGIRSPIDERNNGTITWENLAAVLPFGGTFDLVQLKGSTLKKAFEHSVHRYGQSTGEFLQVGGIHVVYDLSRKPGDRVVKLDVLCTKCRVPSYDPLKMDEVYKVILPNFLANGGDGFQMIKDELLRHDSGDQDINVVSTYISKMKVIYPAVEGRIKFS

B1: KRAS mut8 (designed binder)
chain: DLGKKLLEAARAGQNDKVRILMANGAKVNARDHTGFTPLHLAAQHGHRKIVKVLLKNGAKVNAVDWFGRTPLHLAAKMGHLEIVKVLLKHGANVKADDHNGRTPLHLAAWEGHLEIVKVLLKYGAKVNAQDKFGKTAFDISIENGNEKLAKILQKL
notes: Net charge 12; Tested on phage
B2: KRAS mut9 (designed binder)
chain: B1 chain with K60N, N62K, L81R, E82K, K85E, L114R, E115K, K126D
notes: Net charge 14; Tested on phage
B3: KRAS mut7 (designed binder)
chain: B1 chain with K27N, R48L, K49E, L81R, E82K
notes: Net charge 11; Tested on phage
B4: KRAS mut11 (designed binder)
chain: B1 chain with L81R, E82K, N93D, K95N, L114R, E115K
notes: Net charge 16; Tested on phage
B5: KRAS mut6 (designed binder)
chain: B1 chain with K60D, N93K, K95N
notes: Net charge 10; Tested on phage
B6: KRAS mut10 (designed binder)
chain: B1 chain with L114R, E115K, I142V
notes: Net charge 15; Tested on phage
B7: DARPin 1 (template L-Myc DARPin, net charge -13) (designed binder)
chain: DLGKKLLEAARAGQDDEVRILMANGADVNAMDQYGFTPLHLAAWYGHLEIVEVLLKHGADVNAKDVHGFTPLHLAAWTGHLEIVEVLLKNGADVNARDNEGSTPLHLAALAGHLEIVEVLLKNGADVNAQDKFGKTAFDISIDNGNEDLAEILQKL
notes: also called tDARPin S-13; S-13 tDARPin
B8: CD73 mut11 (designed binder)
chain: DLGKKLLEAARAGQNDKVRILMANGAKVNAADTWGRTPLHLAAYHGHLEIVKVLLKHGANVNAEDIHGFTPLHLAALWGHRKIVKVLLKNGAKVNAVDWYGHTPLHLAAIDGHRKIVKVLLKHGAKVNAQDKFGKTAFDISIENGNEKLAKILQKL
notes: as for B3
B9: LMYC mut8 (designed binder)
chain: DLGKKLLEAARAGQNDKVRILMANGAKVNAMDQYGFTPLHLAAWYGHRKIVKVLLKHGANVKAKDVHGFTPLHLAAWTGHLEIVKVLLKNGANVKARDNEGSTPLHLAALAGHLEIVKVLLKNGAKVNAQDKFGKTAFDISIENGNEKLAKILQKL
notes: as for B3
B10: LMYC mut9 (designed binder)
chain: B9 chain with N93K, K95N
notes: as for B3
B11: LMYC mut7 (designed binder)
chain: B9 chain with K27N, N29K, K85E, N93D, K95N, L114R, E115K
notes: Tested on phage
B12: LMYC mut11 (designed binder)
chain: B9 chain with K27D, L81R, E82K
notes: as for B1

Tests used:
KRAS = biological target: T3, KRAS (UniProt P01116-2 1-188, limits assumed); assay: phage ELISA on target antigen, signal as % of parental WT
T3 construct: Target antigen in phage ELISA; construct not described

[1] = biological target: T1, SUMO-L-Myc fusion protein (recombinant …); assay: second phage ELISA on coated antigens
CD73 = biological target: T2, CD73; assay: phage ELISA on target antigen, signal as % of parental WT
[2] = biological target: T1, SUMO-L-Myc fusion protein (recombinant …); assay: as above

Row | Binder | % antigen binding activity retained (relative to parental) (KRAS) [%] | % antigen binding activity retained (relative to parental) [2] [%] | further results
1 | B1 | > 50 | – | –
2 | B2 | > 50 | – | –
3 | B3 | > 50 | – | –
4 | B4 | > 50 | – | –
5 | B5 | > 50 | – | –
6 | B6 | > 50 | – | –
7 | B7 | – | – | binding result [1]: binds
8 | B8 | – | – | % antigen binding activity retained (relative to parental) (CD73): > 50%
9 | B9 | – | > 50 | –
10 | B10 | – | > 50 | –
11 | B11 | – | > 50 | –
12 | B12 | – | > 50 | –
